This note sets out measurements from patent US7045613 (Amgen, dated 2006).

The experiment concerns the target T1, Human IKK-α containing an N-terminal Flag epitope tag (human, UniProt O15111 1-745).
T1 construct: Transiently expressed in 293 cells for coimmunoprecipitation; also called IκB Kinase
T1 sequence: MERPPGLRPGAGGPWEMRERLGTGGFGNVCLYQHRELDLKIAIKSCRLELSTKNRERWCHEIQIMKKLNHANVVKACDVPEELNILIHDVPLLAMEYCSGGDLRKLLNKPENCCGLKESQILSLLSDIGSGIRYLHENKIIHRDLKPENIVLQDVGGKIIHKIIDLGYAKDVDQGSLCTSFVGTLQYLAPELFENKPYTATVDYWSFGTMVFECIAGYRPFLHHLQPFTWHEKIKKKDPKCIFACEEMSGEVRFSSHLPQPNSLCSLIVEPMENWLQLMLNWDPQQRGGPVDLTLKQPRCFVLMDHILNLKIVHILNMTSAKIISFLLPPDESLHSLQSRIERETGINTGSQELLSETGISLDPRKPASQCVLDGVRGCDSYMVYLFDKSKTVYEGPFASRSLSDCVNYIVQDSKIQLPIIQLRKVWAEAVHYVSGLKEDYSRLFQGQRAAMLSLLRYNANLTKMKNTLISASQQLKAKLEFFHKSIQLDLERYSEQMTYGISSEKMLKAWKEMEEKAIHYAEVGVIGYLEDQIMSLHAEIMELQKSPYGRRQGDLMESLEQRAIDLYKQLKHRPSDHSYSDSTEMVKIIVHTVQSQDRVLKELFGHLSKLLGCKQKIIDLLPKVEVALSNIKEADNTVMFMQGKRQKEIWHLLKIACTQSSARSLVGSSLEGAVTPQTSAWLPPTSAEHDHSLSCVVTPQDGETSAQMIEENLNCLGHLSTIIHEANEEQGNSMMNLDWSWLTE
Briefly: coimmunoprecipitation from 293 cell lysates, anti-Flag IP, anti-HA immunoblot. An excerpt: Human IKK-α containing an N-terminal Flag epitope tag was transiently coexpressed in 293 human embryonic kidney cells with Myc epitope-tagged NIK or HA epitope-tagged TRAF proteins. Cell lysates were immunoprecipitated using a monoclonal antibody against the Flag epitope, and coprecipitating NIK or TRAF proteins were detected by immunoblot analysis with an anti-Myc or anti-HA monoclonal antibodies.

B1: HA epitope-tagged TRAF3 (other, UniProt Q13114 1-568, looked up, not shown: small tags and cut ends)
chain: MESSKKMDSPGALQTNPPLKLHTDRSAGTPVFVPEQGGYKEKFVKTVEDKYKCEKCHLVLCSPKQTECGHRFCESCMAALLSSSSPKCTACQESIVKDKVFKDNCCKREILALQIYCRNESRGCAEQLMLGHLLVHLKNDCHFEELPCVRPDCKEKVLRKDLRDHVEKACKYREATCSHCKSQVPMIALQKHEDTDCPCVVVSCPHKCSVQTLLRSELSAHLSECVNAPSTCSFKRYGCVFQGTNQQIKAHEASSAVQHVNLLKEWSNSLEKKVSLLQNESVEKNKSIQSLHNQICSFEIEIERQKEMLRNNESKILHLQRVIDSQAEKLKELDKEIRPFRQNWEEADSMKSSVESLQNRVTELESVDKSAGQVARNTGLLESQLSRHDQMLSVHDIRLADMDLRFQVLETASYNGVLIWKIRDYKRRKQEAVMGKTLSLYSQPFYTGYFGYKMCARVYLNGDGMGKGTHLSLFFVIMRGEYDALLPWPFKQKVTLMLMDQGSSRRHLGDAFKPDPNSSSFKKPTGEMNIASGCPVFVAQTVLENGTYIKDDTIFIKVIVDTSDLPDP
notes: Transiently coexpressed in 293 cells
B1: the binding result is listed as “no binding”.

B2: HA epitope-tagged TRAF2 (other, UniProt Q12933 1-501, looked up, not shown: small tags and cut ends)
chain: MAAASVTPPGSLELLQPGFSKTLLGTKLEAKYLCSACRNVLRRPFQAQCGHRYCSFCLASILSSGPQNCAACVHEGIYEEGISILESSSAFPDNAARREVESLPAVCPSDGCTWKGTLKEYESCHEGRCPLMLTECPACKGLVRLGEKERHLEHECPERSLSCRHCRAPCCGADVKAHHEVCPKFPLTCDGCGKKKIPREKFQDHVKTCGKCRVPCRFHAIGCLETVEGEKQQEHEVQWLREHLAMLLSSVLEAKPLLGDQSHAGSELLQRCESLEKKTATFENIVCVLNREVERVAMTAEACSRQHRLDQDKIEALSSKVQQLERSIGLKDLAMADLEQKVLEMEASTYDGVFIWKISDFARKRQEAVAGRIPAIFSPAFYTSRYGYKMCLRIYLNGDGTGRGTHLSLFFVVMKGPNDALLRWPFNQKVTLMLLDQNNREHVIDAFRPDVTSSSFQRPVNDMNIASGCPLFCPVSKMEAKNSYVRDDAIFIKAIVDLTGL
notes: as for B1
Consider B2, for which the binding result is on record as “no binding”.
